Consider six molecules from paper PMC7539366 (Cell host & microbe, 2020).

The target in experiment [1] is CVA16 mature virion (strain CVA16/190) (coxsackievirus A16 (strain CVA16/190)).
The target in experiment [2] is T1, CVA16 empty particle (strain CVA16/190) (Coxsackievirus A16, strain CVA16/190 …, strain).
T1 chain 1: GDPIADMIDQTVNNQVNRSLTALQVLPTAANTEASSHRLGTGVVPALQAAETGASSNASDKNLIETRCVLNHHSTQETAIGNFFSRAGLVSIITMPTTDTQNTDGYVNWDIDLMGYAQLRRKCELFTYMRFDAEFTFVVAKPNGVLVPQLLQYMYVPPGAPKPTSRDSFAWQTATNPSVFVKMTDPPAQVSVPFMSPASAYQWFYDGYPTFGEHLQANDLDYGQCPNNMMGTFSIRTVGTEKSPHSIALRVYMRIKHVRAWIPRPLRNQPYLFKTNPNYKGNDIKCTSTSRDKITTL
T1 chain 2: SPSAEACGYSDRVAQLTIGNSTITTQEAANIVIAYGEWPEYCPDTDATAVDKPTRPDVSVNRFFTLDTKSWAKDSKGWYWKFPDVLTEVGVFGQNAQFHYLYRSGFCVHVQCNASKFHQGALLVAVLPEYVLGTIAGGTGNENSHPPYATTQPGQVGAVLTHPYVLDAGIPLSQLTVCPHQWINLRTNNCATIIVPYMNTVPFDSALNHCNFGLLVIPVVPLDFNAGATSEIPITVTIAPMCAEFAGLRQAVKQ
T1 chain 3: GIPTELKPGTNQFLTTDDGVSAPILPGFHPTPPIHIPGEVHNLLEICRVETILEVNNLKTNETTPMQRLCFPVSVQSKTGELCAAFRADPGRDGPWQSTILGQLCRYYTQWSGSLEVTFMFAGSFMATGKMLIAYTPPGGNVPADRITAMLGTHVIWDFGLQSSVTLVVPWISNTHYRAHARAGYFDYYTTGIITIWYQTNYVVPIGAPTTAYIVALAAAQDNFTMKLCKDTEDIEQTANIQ
Kind of experiment: ELISA.

Experiment [3] concerns the target T2, CVA16 mature virion (strain CVA16/190) (Coxsackievirus A16, strain CVA16/190 …, strain).
T2 chain 1: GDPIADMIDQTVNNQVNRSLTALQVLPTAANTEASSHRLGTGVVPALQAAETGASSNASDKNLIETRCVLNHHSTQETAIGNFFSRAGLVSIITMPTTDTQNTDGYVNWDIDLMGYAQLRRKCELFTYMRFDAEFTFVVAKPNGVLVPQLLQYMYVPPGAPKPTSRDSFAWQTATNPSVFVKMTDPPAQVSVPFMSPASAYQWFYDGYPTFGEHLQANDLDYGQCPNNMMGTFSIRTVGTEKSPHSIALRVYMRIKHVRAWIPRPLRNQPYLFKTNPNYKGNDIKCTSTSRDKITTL
T2 chain 2: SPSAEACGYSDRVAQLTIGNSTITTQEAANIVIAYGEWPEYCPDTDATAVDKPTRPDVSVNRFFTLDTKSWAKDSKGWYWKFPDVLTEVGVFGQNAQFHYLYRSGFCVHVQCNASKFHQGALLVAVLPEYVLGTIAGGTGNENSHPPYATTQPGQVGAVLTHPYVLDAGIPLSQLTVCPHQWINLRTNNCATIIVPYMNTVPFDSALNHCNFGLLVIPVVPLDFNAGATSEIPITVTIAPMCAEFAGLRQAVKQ
T2 chain 3: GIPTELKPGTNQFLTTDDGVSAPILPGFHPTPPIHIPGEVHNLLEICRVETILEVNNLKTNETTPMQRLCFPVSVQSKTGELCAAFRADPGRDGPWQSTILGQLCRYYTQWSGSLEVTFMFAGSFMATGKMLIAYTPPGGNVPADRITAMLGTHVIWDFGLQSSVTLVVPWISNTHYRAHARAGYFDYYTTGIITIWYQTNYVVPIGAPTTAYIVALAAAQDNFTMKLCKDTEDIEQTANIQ
T2 chain 4: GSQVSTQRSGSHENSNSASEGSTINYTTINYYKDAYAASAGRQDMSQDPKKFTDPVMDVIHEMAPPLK
Kind of experiment: cryo-EM structure.

For experiment [4], the target named is T3, CVA16 A-particle (strain CVA16/190) (Coxsackievirus A16, strain CVA16/190 …, strain).
T3 chain 1: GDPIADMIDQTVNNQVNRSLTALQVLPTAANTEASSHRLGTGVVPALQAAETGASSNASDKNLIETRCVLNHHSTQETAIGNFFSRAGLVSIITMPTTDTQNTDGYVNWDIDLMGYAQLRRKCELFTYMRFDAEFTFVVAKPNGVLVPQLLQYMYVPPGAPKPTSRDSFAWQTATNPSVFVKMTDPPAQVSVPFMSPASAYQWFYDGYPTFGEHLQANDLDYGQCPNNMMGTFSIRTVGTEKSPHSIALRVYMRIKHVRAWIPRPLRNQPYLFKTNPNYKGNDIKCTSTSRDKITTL
T3 chain 2: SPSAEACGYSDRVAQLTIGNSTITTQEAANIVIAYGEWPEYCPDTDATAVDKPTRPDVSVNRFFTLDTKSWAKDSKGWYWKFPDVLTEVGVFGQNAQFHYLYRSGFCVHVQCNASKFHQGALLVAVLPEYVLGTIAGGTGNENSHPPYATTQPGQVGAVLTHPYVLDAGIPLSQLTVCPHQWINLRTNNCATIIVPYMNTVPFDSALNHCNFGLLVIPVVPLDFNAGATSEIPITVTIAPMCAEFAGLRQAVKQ
T3 chain 3: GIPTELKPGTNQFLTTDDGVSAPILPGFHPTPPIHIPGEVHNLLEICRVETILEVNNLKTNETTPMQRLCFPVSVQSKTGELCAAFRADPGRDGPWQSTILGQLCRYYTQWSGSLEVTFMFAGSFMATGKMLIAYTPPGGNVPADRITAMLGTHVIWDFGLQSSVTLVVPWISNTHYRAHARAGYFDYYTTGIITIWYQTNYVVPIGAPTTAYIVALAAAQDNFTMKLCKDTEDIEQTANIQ
Briefly: cryo-EM structure.

Experiment [5] concerns the target T1, CVA16 empty particle (strain CVA16/190). Kind of experiment: cryo-EM structure.

B1: Mouse Monoclonal Antibody-NA9D7 (antibody, V domains shown)
VH: EVQLQQSGPELVKPGASVKMSCKASGYTFTDYYMKWVKQSHGKSLEWIGDINPNNGATSYNQKFKGKATLTVDKSSSTAYMQLNSLTSEDSAVYYCARRGYGLYYAMDYWGQGTSVTVSS
VL: EIVLTQSPTTMAASPGEKITITCSASSSISSNYLHWYQQKPGFSPKLLIYRTSNLASGVPARFSGSGSGTSYSLTIGTMEAEDVATYYCQQGSSIPHTFGGGTKLEIK
B1 yielded an IC50 of neutralisation of CVA16/190 in RD cells (micro-neutralization, Elispot) in experiment [1] of 1.96 µg/mL. The binding result in experiment [2] is reported as “no binding”.

B2: NA9D7 Fab fragment (Fab, V domains shown)
VH: EVQLQQSGPELVKPGASVKMSCKASGYTFTDYYMKWVKQSHGKSLEWIGDINPNNGATSYNQKFKGKATLTVDKSSSTAYMQLNSLTSEDSAVYYCARRGYGLYYAMDYWGQGTSVTVSS
VL: EIVLTQSPTTMAASPGEKITITCSASSSISSNYLHWYQQKPGFSPKLLIYRTSNLASGVPARFSGSGSGTSYSLTIGTMEAEDVATYYCQQGSSIPHTFGGGTKLEIK
As a reminder, the stoichiometry N is the number of molecules, sites or subunits per partner or assembly. Turning to B2, the “stoichiometry N” value in experiment [3] was ≤ 60 Fabs per mature virion.

B3: Mouse Monoclonal Antibody-18A7 (antibody, V domains shown)
VH: EVQLQQSGPELVKPGASVKMSCKASGYTFTDYYMKWVKQSHGKSLEWIGDINPYNGDSFNNQKFKGKATLTVDTSSSTAYMQLNSLTSEDSAVYYCAIPYDYDEGWFAYWGQGTLVTVSA
VL: DIVMSQSPSSLAVSVGEKVTMSCKSSQSLLYSNNQKNYLAWYQQKPGQSPQLLIYWASTRESGVPDRFTGSESGTDFTLTISSVKAEDLAVFYCQQYYNYPWTFGGGTKLEIK
Consider B3, for which the IC50 of neutralisation of CVA16/190 in RD cells (micro-neutralization, Elispot) in experiment [1] was determined as 0.04 µg/mL.

B4: 18A7 Fab fragment (Fab, V domains shown)
VH: EVQLQQSGPELVKPGASVKMSCKASGYTFTDYYMKWVKQSHGKSLEWIGDINPYNGDSFNNQKFKGKATLTVDTSSSTAYMQLNSLTSEDSAVYYCAIPYDYDEGWFAYWGQGTLVTVSA
VL: DIVMSQSPSSLAVSVGEKVTMSCKSSQSLLYSNNQKNYLAWYQQKPGQSPQLLIYWASTRESGVPDRFTGSESGTDFTLTISSVKAEDLAVFYCQQYYNYPWTFGGGTKLEIK
As to B4, the “stoichiometry N” value in experiment [4] and in experiment [5] was 12 Fabs per viral particle in each case.

B5: Mouse Monoclonal Antibody-14B10 (antibody, V domains shown)
VH: QVQLQQSGPELVKPGASVKISCKASGYEFSRSWMNWVKQRPGQGLEWIGRIYPGDGDTNYNGKFRDKATLTADKSSSTAYMQLSRLTSVDSAVYFCARRRGYFDVWGAGTTVTVS
VL: DIQMTQSSSYLSVSLGGRVTITCKASDHINNWLAWYQQKPGNAPRLLISGATSLETGIPSRFSGSGSGKDYTLSITSLQTEDVGTYYCQQYWSTPTFGGGTKLEIK
For B5, the IC50 of neutralisation of CVA16/190 in RD cells (micro-neutralization, Elispot) in experiment [1] is 1.01 µg/mL. Further, the binding result in experiment [2] is “no binding”.

B6: 14B10 Fab fragment (Fab, V domains shown)
VH: QVQLQQSGPELVKPGASVKISCKASGYEFSRSWMNWVKQRPGQGLEWIGRIYPGDGDTNYNGKFRDKATLTADKSSSTAYMQLSRLTSVDSAVYFCARRRGYFDVWGAGTTVTVS
VL: DIQMTQSSSYLSVSLGGRVTITCKASDHINNWLAWYQQKPGNAPRLLISGATSLETGIPSRFSGSGSGKDYTLSITSLQTEDVGTYYCQQYWSTPTFGGGTKLEIK
Take B6: in experiment [3], the “stoichiometry N” value is ≤ 60 Fabs per mature virion.
